± gives the uncertainty stated by the source.
Test: self-splicing fitness, log relative to wild type (ln ratio); higher = more splicing; Tetrahymena group I intron in knt gene, E. coli kanamycin selection, DiMSum; sequences stand for … in CUCUCU…GGAGGGAAAAGUUAUCAGGCAUGCACCUGGUAGCUAGUCUUUAAACCAAUAGAUUGCAUCGGUUUAAAAGGCAAGACCGUCAAAUUGCGGGAAAGGGGUCAACAGCCGUUCAGUACCAAGUCUCAGGGGAAACUUUGAGAUGGCCUUGCAAAGGGUAUGGUAAUAAGCUGACGGACAUGGUCCUAACCACGCAGCCAAGUCCUAAGUCAACAGAUCUUCUGUUGAUAUGGAUGCAGUUCACAGACUAAAUGUCGGUCGGGGAAGAUGUAUUCUUCUCAUAAGAUAUAGUCGGACCUCUCCUUAAUGGGAGCUAGCGGAUGAAGUGAUGCAACACUGGAGCCGCUGGGAACUAAUUUGUAUGCGAAAGUAUAUUGAUUAGUUUUGGAGUACUCGUGGUCG
How it was run: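 Colonies from six replicate transformations of E. coli BL21(DE3) were pooled and amplicon-sequenced on an Illumina HiSeq 2500. The library placed an intron with all eight P1ex-region nucleotides randomised inside the knt kanamycin-resistance gene on pET-22b(+), and cells grew overnight at 37°C or 30°C on LB agar with or without 25 μg/mL kanamycin (plus 100 μg/mL carbenicillin, 50 μM IPTG, 0.2% rhamnose). Fitness is the DiMSum error-weighted combination of wild-type-normalised replicate fold changes, kanamycin versus none.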

Sequence	self-splicing fitness (ln) (30 °C)	self-splicing fitness (ln) (37 °C)
UAGUAGCAAUAUUACGCGGA	-3.56 ± 0.47	-0.643 ± 0.17
UAUAAGCAAUAUUACGGGCU	-2.64 ± 0.31	-1.71 ± 0.31
GUGGAGCAAUAUUACGUGUA	-2.68 ± 0.2	-2.85 ± 0.24
GAACAGCAAUAUUACGAAGU	-2.04 ± 0.12	-0.944 ± 0.15
ACAUAGCAAUAUUACGCAAG	-1.9 ± 0.12	-1.25 ± 0.2
AUCUAGCAAUAUUACGGAUC	-3.03 ± 0.17	-2.33 ± 0.24
GCAAAGCAAUAUUACGACAC	-0.783 ± 0.099	-0.461 ± 0.13
GUCGAGCAAUAUUACGGAAC	-3.01 ± 0.19	-1.9 ± 0.2
ACUGAGCAAUAUUACGGCUG	-1.18 ± 0.16	-0.804 ± 0.19
GCAAAGCAAUAUUACGGUCA	-1.12 ± 0.083	-0.197 ± 0.087
AGGAAGCAAUAUUACGGUGU	-3.33 ± 0.16	-1.48 ± 0.1
UGUGAGCAAUAUUACGGCUC	-3.06 ± 0.44	-3.18 ± 0.47
GAUGAGCAAUAUUACGAUUU	-1.07 ± 0.14	-2.1 ± 0.18
AGUUAGCAAUAUUACGAUCA	-0.843 ± 0.13	0.619 ± 0.12
GAAGAGCAAUAUUACGUCGU	-2.96 ± 0.21	-2.24 ± 0.21
GACAAGCAAUAUUACGUAAC	-1.64 ± 0.077	-1.22 ± 0.11
GUACAGCAAUAUUACGUGCA	-3.96 ± 0.22	-2.17 ± 0.16
GCGCAGCAAUAUUACGAAUC	0.348 ± 0.15	-0.0791 ± 0.13
GGCAAGCAAUAUUACGGUAA	-1.28 ± 0.097	0.108 ± 0.094

Sequence	self-splicing fitness (ln) (30 °C)	self-splicing fitness (ln) (37 °C)
GACAAGCAAUAUUACGUGUG	-2.78 ± 0.078	-1.56 ± 0.083
CAAUAGCAAUAUUACGGAUU	-3.94 ± 0.2	-3.55 ± 0.3
UAUGAGCAAUAUUACGUUUC	-3.66 ± 0.4	-1.67 ± 0.32
AAGGAGCAAUAUUACGUCCA	-1.29 ± 0.16	-0.459 ± 0.16
UUGCAGCAAUAUUACGUCGA	-0.56 ± 0.09	0.0432 ± 0.13
GACAAGCAAUAUUACGUACA	-0.573 ± 0.055	-0.314 ± 0.079
CUAUAGCAAUAUUACGCUGA	-2.84 ± 0.24	-2.32 ± 0.29
CUUUAGCAAUAUUACGACGU	-3.69 ± 0.38	-1.86 ± 0.3
AUGUAGCAAUAUUACGAUGA	-0.624 ± 0.15	-1.66 ± 0.15
CGUCAGCAAUAUUACGACCC	-0.525 ± 0.18	0.0394 ± 0.17
GACUAGCAAUAUUACGGAAA	-1.53 ± 0.14	-0.989 ± 0.14
UCCGAGCAAUAUUACGGGAU	-3.44 ± 0.33	
CCAAAGCAAUAUUACGAACC	-3.78 ± 0.47	-1.5 ± 0.34
AACAAGCAAUAUUACGAGUU	-3.35 ± 0.099	-1.5 ± 0.091
CACUAGCAAUAUUACGAAGG	-1.65 ± 0.1	-0.781 ± 0.15
AUAGAGCAAUAUUACGCAAC		-1.78 ± 0.41
GCUAAGCAAUAUUACGCAUA	-1.97 ± 0.11	-1.5 ± 0.093
UCGCAGCAAUAUUACGGGGC	-2.52 ± 0.23	-2.63 ± 0.27
CACUAGCAAUAUUACGCAUA	-2.75 ± 0.2	-2.83 ± 0.24

From the supplement of paper PMC7877785
